The results in this text go back to paper PMC7005713, “Revisiting the pH-gated conformational switch on the activities of HisKA-family histidine kinases” (Nature Communications, 2020).

B1: HK853, complete cytoplasmic portion (DHp and CA domains), wild type (domain or fragment, Thermotoga maritima)
chain: VENVTESKELERLKRIDRMKTEFIANISHELRTPLTAIKAYAETIYNSLGELDLSTLKEFLEVIIDQSNHLENLLNELLDFSRLERKSLQINREKVDLCDLVESAVNAIKEFASSHNVNVLFESNVPCPVEAYIDPTRIRQVLLNLLNNGVKYSKKDAPDKYVKVILDEKDGGVLIIVEDNGIGIPDHAKDRIFEQFYRVDSSLTYEVPGTGLGLAITKEIVELHGGRIWVESEVGKGSRFFVWIPKDRAGEDNRQDN
notes: Sensor histidine kinase HK853 of Thermotoga maritima, complete cytoplasmic (catalytic) portion with DHp and CA domains; source: E. coli BL21-CodonPlus(DE3)-RIL, purified (70 °C heat step, HisTrap HP, TEV digestion, Superdex 200)
B2: HK853 H260A, complete cytoplasmic portion (domain or fragment, Thermotoga maritima)
chain: B1 chain with H29A
notes: ADP was added for crystallisation; Same limits as m1; source: E. coli BL21-CodonPlus(DE3)-RIL, purified (70 °C heat step, HisTrap HP, TEV digestion, Superdex 200)
B3: RR468 wild type, bound to the phosphomimetic BeF3- (natural protein, Thermotoga maritima)
chain: MSKKVLLVDDSAVLRKIVSFNLKKEGYEVIEAENGQIALEKLSEFTPDLIVLDIMMPVMDGFTVLKKLQEKEEWKRIPVIVLTAKGGEEDESLALSLGARKVMRKPFSPSQFIEEVKHLLNE
modifications: phosphomimetic BeF3- bound to the phosphoacceptor D53
notes: Response regulator RR468 of Thermotoga maritima; BeF3- was formed in the crystallisation mixture from 30 mM NaF, 5 mM BeSO4 and 7 mM MgCl2; source: E. coli BL21-CodonPlus(DE3)-RIL, purified (70 °C heat step, HisTrap HP, TEV digestion, Superdex 75)
B4: RR468 D53A (natural protein, Thermotoga maritima)
chain: B3 chain with D53A
notes: Response regulator RR468 of Thermotoga maritima cloned in pET22b, with the phosphoacceptor Asp53 changed to Ala; lacks a Histag; source: E. coli BL21-CodonPlus(DE3)-RIL, purified (70 °C heat step, Mono Q, Superdex 75)

Data set [1] deals with the molecule itself. Kind of data set: crystal structure; HK853 (10 mg/ml) and RR468 (7.5 mg/ml) with 4 mM ADP, 30 mM NaF, 5 mM BeSO4, 7 mM MgCl2; sitting drops at 21 °C; 1.8 M (NH4)2SO4, 0.1 M sodium citrate; four structures at pH 5.5, 6.5, 7 and 7.5.
Data set [2] deals with the molecule itself. Kind of data set: crystal structure; HK853 H260A and RR468 D53A with 4 mM ADP; sitting drops at 21 °C; pH 7.5: 1.8 M (NH4)2SO4, 100 mM sodium citrate; pH 5.3: 1.2 M (NH4)2SO4, 100 mM Bis-Tris; two structures.
Data set [3] deals with B1. In words: crystal structure; HK853 (10 mg/ml) and RR468 (7.5 mg/ml) with 4 mM ADP, 30 mM NaF, 5 mM BeSO4, 7 mM MgCl2; sitting drops at 21 °C; 1.8 M (NH4)2SO4, 0.1 M sodium citrate; four structures at pH 5.5, 6.5, 7 and 7.5. The following applies: both partners purified.
Data set [4] concerns the target B2. In words: crystal structure; HK853 H260A and RR468 D53A with 4 mM ADP; sitting drops at 21 °C; pH 7.5: 1.8 M (NH4)2SO4, 100 mM sodium citrate; pH 5.3: 1.2 M (NH4)2SO4, 100 mM Bis-Tris; two structures. The following applies: both partners purified.
The target in data set [5] is B1. Kind of data set: crystal structure; HK853 wild type and RR468 D53A with 4 mM ADP; sitting drops at 21 °C; pH 7: 1.8 M (NH4)2SO4, 100 mM sodium citrate; pH 5.3: 1.2 M (NH4)2SO4, 100 mM Bis-Tris; two structures. The following applies: both partners purified.

Where a chain is given by its changes, count along the chain named. In names and notes the source's numbering stands.

Turning to B1, in data set [1], the binding result is recorded as “binds”.
On to B2, for which the binding result in data set [2] is reported as “binds”.
On to B3, for which the binding result in data set [3] is “binds”.
Turning to B4, the binding result in data set [4] and in data set [5] was “binds” each time.
